Legend:
[1] = molecular target: recombinant HUXcc-His6 (Xanthomonas campestris pv. campestris); experiment: MST; HUXcc labelled with NT-647 (RED-NHS kit), purified HrpG titrated from 0.001 to 17 μM in a 1:1 series dilution; 1 x MST buffer (50 mM Tris, 150 mM NaCl, 10 mM MgCl2, pH 6) with 0.05% Tween; Monolith NT.115, standard treated capillaries; KD-Fit function
[2] = molecular target: HrpG (Xanthomonas campestris pv. campestris 8004) (UniProt Q8PBF6); experiment: MST; details: MST: 50 mM Tris-HCl pH 7.4, 150 mM NaCl, 10 mM MgCl2, 0.05% Tween-20; EMSA: 10 mM Tris-HCl pH 7.5, 50 mM KCl, 1 mM DTT, 50 ng poly(dI:dC), 0-40 uM protein …
HrpG = HrpG (Xanthomonas campestris pv. campestris …, UniProt Q8PBF6 1-262); experiment: MST; 10 mM MgCl2; MST: 50 mM Tris-HCl pH 7.4, 150 mM NaCl, 10 mM MgCl2, 0.05% Tween-20; EMSA: 10 mM Tris-HCl pH 7.5, 50 mM KCl, 1 mM DTT, 50 ng poly(dI:dC), 0-40 uM protein, 28 C 30 min; details: protein: recombinant; text writes HrpG-His6; chain copies: 2; label: 5'-FAM; blunt

Molecule	Kd [2]	also measured
HrpG-His6 recombinant protein (natural protein)		Kd [1]: 0.64 µM
hpa2p MST fragment	2.22 µM	
hrpEp MST fragment	2.3 µM	
hrcUp MST fragment	1.79 µM	
Motif-2 (mutated HrpG motif probe) (dsDNA) DNA 1: CTTCGAAGTGAGAACGGAATCCGGATCCGC DNA 2: GCGGATCCGGATTCCGTTCTCACTTCGAAG		binding result (HrpG): no binding
Motif-1 (HrpG consensus motif probe) (dsDNA) DNA 1: CTTCGAAGTGAGAAATTCTATTGGATCCGC DNA 2: GCGGATCCAATAGAATTTCTCACTTCGAAG		Kd (HrpG): 6.96 ± 1.44 µM

Source: article PMC7036363, “Analysis of HrpG regulons and HrpG‐interacting proteins by ChIP‐seq and affinity proteomics in Xanthomonas campestris”
